The values below come from publication PMC7419741.

One experiment has as its target CCR9^QTY–Fc (UniProt P51686). Description: MST; 5 nM NT647-labelled receptor-Fc against a gradient of ligand; 1x PBS, 10 mM DTT, arginine at different concentrations; Monolith NT.115 pico, 25°C; data from the early T-Jump period; Kd model (law of mass action).
Another experiment deals with CCL25 (Homo sapiens) (UniProt O15444). Particulars: cited from earlier work.
Another experiment deals with IL8 (Homo sapiens) (UniProt P10145). Particulars: cited from earlier work.
Experiment [1] has as its target IL8 (dimer) (Homo sapiens) (UniProt P10145). The experiment is described as follows: cell-based assay. Particulars: cited from earlier work.
Experiment [2] concerns the target IL8 (monomer) (Homo sapiens) (UniProt P10145). Description: cell-based assay. Particulars: cited from earlier work.
For a further experiment, the target named is IFNγR1^QTY–Fc. Description: MST; 5 nM NT647-labelled receptor-Fc against a gradient of ligand; 1x PBS, 10 mM DTT, arginine at different concentrations; Monolith NT.115 pico, 25°C; data from the early T-Jump period; Kd model (law of mass action).
For experiment [3], the target named is IFNγ (Homo sapiens) (UniProt P01579). The experiment is described as follows: SPR. Particulars: cited from earlier work.
Experiment [4] has the same target. The experiment is described as follows: cell-based assay. Particulars: cited from earlier work.
The target of the next experiment is IL4 (Homo sapiens) (UniProt P05112). The experiment is described as follows: SPR. Particulars: cited from earlier work.
A further experiment deals with IL10Rα^QTY–Fc. Description: MST; 5 nM NT647-labelled receptor-Fc against a gradient of ligand; 1x PBS, 10 mM DTT, arginine at different concentrations; Monolith NT.115 pico, 25°C; data from the early T-Jump period; Kd model (law of mass action).
A further experiment concerns the target IFNλR1^QTY–Fc. The experiment is described as above.

CXCR2, sequence (P25025 whole entry): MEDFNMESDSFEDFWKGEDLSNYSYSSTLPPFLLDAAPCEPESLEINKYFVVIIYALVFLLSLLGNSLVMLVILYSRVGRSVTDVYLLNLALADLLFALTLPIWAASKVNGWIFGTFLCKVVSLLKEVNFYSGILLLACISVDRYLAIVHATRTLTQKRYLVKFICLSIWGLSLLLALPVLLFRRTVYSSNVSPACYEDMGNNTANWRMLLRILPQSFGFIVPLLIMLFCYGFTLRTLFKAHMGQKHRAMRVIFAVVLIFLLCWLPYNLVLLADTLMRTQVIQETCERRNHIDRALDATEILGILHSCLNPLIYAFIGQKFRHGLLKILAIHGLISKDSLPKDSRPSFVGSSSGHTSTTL
IFNγ (Homo sapiens), sequence (P01579 24-161): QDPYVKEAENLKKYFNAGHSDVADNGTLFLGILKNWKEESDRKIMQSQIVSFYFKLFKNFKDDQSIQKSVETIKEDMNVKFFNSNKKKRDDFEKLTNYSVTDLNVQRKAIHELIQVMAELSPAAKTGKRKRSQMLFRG
IFNγR1, sequence (P15260 18-245): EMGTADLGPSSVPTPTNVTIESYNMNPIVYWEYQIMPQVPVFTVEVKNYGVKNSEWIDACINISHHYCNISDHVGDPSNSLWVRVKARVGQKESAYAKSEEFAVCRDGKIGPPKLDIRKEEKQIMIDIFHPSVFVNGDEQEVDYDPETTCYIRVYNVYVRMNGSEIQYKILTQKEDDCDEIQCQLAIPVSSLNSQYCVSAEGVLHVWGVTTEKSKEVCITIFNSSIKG
CCL25 (Homo sapiens), sequence (O15444 24-150): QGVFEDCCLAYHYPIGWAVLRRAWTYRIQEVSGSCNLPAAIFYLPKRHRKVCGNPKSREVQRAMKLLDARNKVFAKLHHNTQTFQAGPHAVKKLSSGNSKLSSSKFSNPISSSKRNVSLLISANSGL
CCL25, sequence (O15444 24-150): as above
IL8 (monomer) (Homo sapiens), sequence (P10145 28-99): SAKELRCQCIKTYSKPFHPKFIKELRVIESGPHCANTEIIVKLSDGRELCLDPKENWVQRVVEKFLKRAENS
IL8 (dimer) (Homo sapiens), sequence (P10145 28-99): as above
IL8 (Homo sapiens), sequence (P10145 28-99): as above
IL29, sequence (Q8IU54 20-200): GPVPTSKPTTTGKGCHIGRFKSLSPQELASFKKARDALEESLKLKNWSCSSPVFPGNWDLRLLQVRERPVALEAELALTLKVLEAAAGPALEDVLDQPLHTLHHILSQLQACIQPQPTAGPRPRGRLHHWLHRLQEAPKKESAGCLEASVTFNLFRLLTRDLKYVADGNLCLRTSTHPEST
IFNγ, sequence (P01579 24-161): as the sequence (P01579 24-161) above
IL4Rα, sequence (P24394 26-232): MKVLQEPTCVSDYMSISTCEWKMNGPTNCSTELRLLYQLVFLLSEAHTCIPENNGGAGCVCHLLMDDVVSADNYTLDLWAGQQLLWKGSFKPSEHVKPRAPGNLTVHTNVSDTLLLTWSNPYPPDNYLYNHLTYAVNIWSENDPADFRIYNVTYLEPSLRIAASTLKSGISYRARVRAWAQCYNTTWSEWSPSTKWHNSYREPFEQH
IL4 (Homo sapiens), sequence (P05112 25-153): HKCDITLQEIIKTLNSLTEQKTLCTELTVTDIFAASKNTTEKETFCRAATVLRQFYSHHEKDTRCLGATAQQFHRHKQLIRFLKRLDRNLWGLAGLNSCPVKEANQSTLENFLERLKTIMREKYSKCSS
IL10, sequence (P22301 19-178): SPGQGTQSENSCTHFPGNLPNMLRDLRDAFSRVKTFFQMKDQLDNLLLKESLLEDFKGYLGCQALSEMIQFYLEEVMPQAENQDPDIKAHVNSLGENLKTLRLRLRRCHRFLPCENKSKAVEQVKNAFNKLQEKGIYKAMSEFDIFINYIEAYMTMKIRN

As for “CCL25 (from UniProt O15444 24-150) (ligand)”, the dissociation constant Kd (as a rule, a measure of binding affinity in units of concentration) in the experiment with CCR9^QTY–Fc stood at 37.2 nM.
On to CCR9 (from UniProt P51686), for which the dissociation constant Kd with CCL25 (Homo sapiens) was 8 nM.
In the case of CXCR2 (from UniProt P25025), the Kd with IL8 (Homo sapiens) was 70 nM; in experiment [1], 8.5 nM; in experiment [2], 0.5 nM.
As for “IFNγ (from UniProt P01579 24-161) (ligand)”, the dissociation constant (Kd) in the experiment with IFNγR1^QTY–Fc worked out at 6.2 nM.
Turning to IFNγR1 (from UniProt P15260), the figures for the Kd in the experiment with IFNγ (Homo sapiens) [3] and with IFNγ (Homo sapiens) [4] were 30.8 nM and 1.7 nM, respectively.
On to IL4Rα (from UniProt P24394), for which, in the experiment with IL4 (Homo sapiens), the Kd was 1 nM.
For the substance “IL10 (from UniProt P22301 19-178) (ligand)”, the Kd with IL10Rα^QTY–Fc was 1.6 nM.
Consider “IL29 (from UniProt Q8IU54 20-200) (ligand)”, for which the dissociation constant (Kd) in the experiment with IFNλR1^QTY–Fc came out at 11.5 nM.
